Biological target: T1, OsSPL3 (Oryza sativa (indica, Minghui63; stated …, UniProt A2X0Q6 1-469)
T1 sequence: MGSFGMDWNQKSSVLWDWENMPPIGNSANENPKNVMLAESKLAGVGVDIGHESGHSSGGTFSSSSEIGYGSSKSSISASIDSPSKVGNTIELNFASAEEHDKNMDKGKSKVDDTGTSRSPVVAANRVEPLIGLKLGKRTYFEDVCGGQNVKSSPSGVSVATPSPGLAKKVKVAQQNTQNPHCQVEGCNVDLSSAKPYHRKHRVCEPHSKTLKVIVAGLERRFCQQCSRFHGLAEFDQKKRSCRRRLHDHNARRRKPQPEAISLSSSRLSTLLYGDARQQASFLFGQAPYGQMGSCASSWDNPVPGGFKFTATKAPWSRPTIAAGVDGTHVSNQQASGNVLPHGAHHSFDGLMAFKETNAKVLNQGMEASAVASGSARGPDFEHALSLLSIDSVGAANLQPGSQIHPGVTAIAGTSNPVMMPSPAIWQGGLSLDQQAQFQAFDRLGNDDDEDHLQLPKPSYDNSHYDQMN
Assay: EMSA; EMSA binding buffer (as printed, probably a concentrated stock): 125 mM Tris-HCl pH 8.0, 750 mM NaCl, 25 mM MgCl2, 100 mg/mL BSA, 50% glycerol, 5 mM DTT, 125 ng/uL salmon sperm DNA; 25 C, 20 min; 6% PAGE in 0.5x TG
Conditions: protein: recombinant; tags: N-terminal 6xHis (pET28A); label: 5' FAM on F strand; blunt

B1: D10 S2 (dsDNA)
DNA 1: CCACGCCCCACGTAACGTAGCGTACAGTGTACACCTGATTTCGCTCGGTC
DNA 2: GACCGAGCGAAATCAGGTGTACACTGTACGCTACGTTACGTGGGGCGTGG
B1: binds.

B2: D10 S1 (dsDNA)
DNA 1: CTCACACATGCTACTGATGATGTACGTACGGACGTTACGTAGCGCGCGGG
DNA 2: CCCGCGCGCTACGTAACGTCCGTACGTACATCATCAGTAGCATGTGTGAG
B2: binds.

Reference: PMC10733476, “OsDWARF10, transcriptionally repressed by OsSPL3, regulates the nutritional metabolism of polished rice”
